Key:
Experiment in all cases: two-hybrid; β-galactosidase activity in yeast strain AH109 with the Yeast β-galactosidase Assay Kit (Thermo Fisher Scientific); pGBKT7 bait and pGADT7 prey; three biological replicates
[1] = biological target: MnMADS33 (mulberry 'Jinqiang 63' (JQ63) used for vector construction; gene identified in Morus notabilis)
[2] = biological target: MnMADS50 (mulberry 'Jinqiang 63' (JQ63) used for vector construction; gene identified in Morus notabilis)
[3] = biological target: MnMADS1 (mulberry 'Jinqiang 63' (JQ63) used for vector construction; gene identified in Morus notabilis)
pGBKT7-53 = biological target: pGBKT7-53

MnMADS1 (natural protein)
β-galactosidase activity [1]: 15.1 units | β-galactosidase activity [2]: 16.3 units

MnMADS33 (natural protein)
β-galactosidase activity [3]: 17.5 units

MnMADS50 (natural protein)
β-galactosidase activity [3]: 15.3 units

pGADT7-T
β-galactosidase activity (pGBKT7-53): 15.7 units

From PMC5895635
